Molecular target: EVA-4 (UniProt P0C8E9)
Test: SPR

Sequence of CCL13, Q99616 17-98 (ligand; biotin on the Avi-tag (Bir-A ligase); other documents disagree on this pair) (Q99616 17-98): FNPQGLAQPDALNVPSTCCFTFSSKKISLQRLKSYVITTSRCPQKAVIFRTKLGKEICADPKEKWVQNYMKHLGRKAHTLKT
Sequence of EVA-4 (P0C8E9 24-127): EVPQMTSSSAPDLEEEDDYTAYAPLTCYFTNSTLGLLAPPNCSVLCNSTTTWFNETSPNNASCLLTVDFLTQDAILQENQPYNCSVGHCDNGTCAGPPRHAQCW

With “CCL13, Q99616 17-98 (ligand; biotin on the Avi-tag (Bir-A ligase); other documents disagree on this pair)” the Kd was 253 nM.

Source: PMC9478924
